One test has as its target T1, HLA-A*0201 (Homo sapiens, UniProt P04439, D140Y/D185E/D98H/E176V/E277Q/G131W/G231S/I119V/I121R/I166T/I218V/L300P/L318F/N151K/N90K/P208A/P217A/Q86G/Q94H/R138H/R169H/T345S).
T1 construct: human tumoral cell T2 which expresses the HLA-A*0201 molecule, but which is TAP1/2 negative; endogenous in cells; host or cells: T2 cells (human, TAP1/2 negative)
As to the kind of experiment: Affinity of the peptide to HLA-A*0201 measured on T2 cell line (FACS, anti-HLA-A2 labelling). Format: binding. The note with it: for binding to HLA-A*0201 / affinity to HLA-A*0201 compared with the peptide 1A9V: Example 3, FIG. 4, T2 cells; for peptide concentration inducing 20% of expression of the HLA-A*0201: T2 cells. The source says:
The experimental protocol is similar to the one that was validated for peptides presented by the HLA-A*0201 (Tourdot et al., A general strategy to enhance immunogenicity of low-affinity HLA-A2.1-associated peptides: implication in the identification of cryptic tumor epitopes. Eur J Immunol. 2000 December; 30 (12): 3411-21). Affinity measurement of the peptides is achieved with the human tumoral cell T2 which expresses the HLA-A*0201 molecule, but which is TAP1/2 negative and incapable of presenting endogenous peptides.
T2 cells (2.10^5 cells per well) are incubated with decreasing concentrations of peptides from 100 μM to 0.1 μM in a AIMV medium supplemented with 100 ng/μl of human β2m at 37° C. for 16 hours. Cells are then washed two times and marked with the anti-HLA-A2 antibody coupled to PE (clone BB7.2, BD Pharmagen).
The analysis is achieved by FACS (Guava Easy Cyte).
For each peptide concentration, the geometric mean of the labelling associated with the peptide of interest is substracted from background noise and reported as a percentage of the geometric mean of the […] labelling obtained for the reference peptide HIV pol 589-597 at a concentration of 100 μM. The relative affinity is then determined as follows: relative affinity=concentration of each peptide inducing 20% of expression of HLA-A*0201/concentration of the reference peptide inducing 20% of expression of HLA-A*0201. A2. Solubilisation of Peptides
The experimental protocol was similar to the one that was validated for peptides presented by the HLA-A*0201 (Tourdot et al., A general strategy to enhance immunogenicity of low-affinity HLA-A2.1-associated peptides: implication in the identification of cryptic tumor epitopes. Eur J Immunol. 2000 December; 30 (12): 3411-21).
T2 cells (2.10^5 cells per well) were incubated with decreasing concentrations of peptides from 100 μM to 0.1 μM in a AIMV medium supplemented with 100 ng/μl of human β2m at 37° C. for 16 hours. Cells were then washed two times and marked with the anti-HLA-A2 antibody coupled to PE (clone BB7.2, BD Pharmagen).
The analysis was achieved by FACS (Guava Easy Cyte).
For each peptide concentration, the geometric mean of the labelling associated with the peptide of interest was subtracted from background noise and reported as a percentage of the geometric mean of the […] labelling obtained for the reference peptide HIV pol 589-597 at a concentration of 100 μM. The relative affinity is then determined as follows: relative affinity=concentration of each peptide inducing 20% of expression of HLA-A*0201/concentration of the reference peptide inducing 20% of expression of HLA-A*0201. A2. Solubilisation of Peptides
The experimental protocol, materials and methods correspond to those outlined in Example 3, with the only difference that the above mentioned antigenic peptides were used.

The test system of a further test is β/A2/DR3 mice. As to the kind of experiment: ELISPOT-IFNγ assay on splenocytes of vaccinated β/A2/DR3 mice. The format is in vivo, mouse. The note with it: as compared to IL13RA2-H-vaccinated animals (group 2).

For “CLYTFLIST [IL13RA2-H2, reference compound]”, in the test with HLA-A*0201, the “binding to HLA-A*0201” value is reported as “do not bind to or show much lower affinity”.
For FLPFGFILV [IL13RA2-B], the “T cell responses in the ELISPOT-IFNγ assay after vaccination” value in the test on β/A2/DR3 mice was “improved T cell responses”. Further, in the test with HLA-A*0201, the “affinity to HLA-A*0201 compared with the peptide 1A9V” value is “higher affinity”, the “binding to HLA-A*0201” value was “bind strongly” and the “peptide concentration inducing 20% of expression of the HLA-A*0201” value amounted to 4.4 µM.
For the sequence “WLPFGFILI [IL13RA2-H, reference compound]”, in the test with HLA-A*0201, the “binding to HLA-A*0201” value was “do not bind to or show much lower affinity” and the “peptide concentration inducing 20% of expression of the HLA-A*0201” value is on record as 100 UM.
In the case of YLYTFLIST [IL13RA2-B2], in the test with HLA-A*0201, the “affinity to HLA-A*0201 compared with the peptide 1A9V” value is “higher affinity” and the “binding to HLA-A*0201” value is reported as “bind strongly”.
